Measured values published in PMC10001486, “Artificial Intelligence-Based Computational Screening and Functional Assays Identify Candidate Small Molecule Antagonists of PTPmu-Dependent Adhesion” (International Journal of Molecular Sciences, 2023).

Biological target: the molecule itself
Assay: bead aggregation assay; streptavidin MonoMag beads (1 micron) coated with biotin-tagged PTPµ21-365avi; PBS + 0.01% Tween 20; room temperature; rotation at 150 rpm for 30 min; aggregates over 50 µm^2 counted by microscopy

B1: PTPµ21-365avi (fragment of PTPµ containing the MAM, Ig, and first FNIII repeat) (domain or fragment, human, UniProt P28827 21-365, looked up)
chain: ETFSGGCLFDEPYSTCGYSQSEGDDFNWEQVNTLTKPTSDPWMPSGSFMLVNASGRPEGQRAHLLLPQLKENDTHCIDFHYFVSSKSNSPPGLLNVYVKVNNGPLGNPIWNISGDPTRTWNRAELAISTFWPNFYQVIFEVITSGHQGYLAIDEVKVLGHPCTRTPHFLRIQNVEVNAGQFATFQCSAIGRTVAGDRLWLQGIDVRDAPLKEIKVTSSRRFIASFNVVNTTKRDAGKYRCMIRTEGGVGISNYAELVVKEPPVPIAPPQLASVGATYLWIQLNANSINGDGPIVAREVEYCTASGSWNDRQPVDSTSYKIGHLDPDTEYEISVLLTRPGEGGTGS
modifications: biotin (biotin-tagged)
notes: PTPµ, aa 21-365: MAM domain, Ig domain and first FNIII repeat; held on streptavidin beads by the biotin on the avi tag; the species is stated only for the full-length protein and by the UniProt entry; also called extracellular fragment of PTPmu; source: bacterially expressed
B1: binds.
